Values quoted from earlier work as cited in patent US5654276A, “Peptides and compounds that bind to the IL-5 receptor” (Affymax Technologies N.V., priority 1995, dated 1997).

Target: T1, human IL-5 receptor (Homo sapiens, UniProt Q01344)
T1 construct: host or cells: HL60 subclone induced towards eosinophil differentiation with sodium butyrate (endogenous receptor)
T1 sequence (Q01344 21-420): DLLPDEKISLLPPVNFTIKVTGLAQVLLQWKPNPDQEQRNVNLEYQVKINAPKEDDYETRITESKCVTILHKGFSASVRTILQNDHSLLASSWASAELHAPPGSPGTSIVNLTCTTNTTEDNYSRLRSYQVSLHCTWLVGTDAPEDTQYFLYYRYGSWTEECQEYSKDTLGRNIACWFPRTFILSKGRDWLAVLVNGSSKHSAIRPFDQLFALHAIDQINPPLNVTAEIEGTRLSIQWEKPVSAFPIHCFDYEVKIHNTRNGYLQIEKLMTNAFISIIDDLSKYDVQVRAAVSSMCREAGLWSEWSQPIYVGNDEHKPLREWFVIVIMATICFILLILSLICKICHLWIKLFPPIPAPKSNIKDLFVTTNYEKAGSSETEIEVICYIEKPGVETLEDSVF
T1 sequence (P32927 17-897 partner): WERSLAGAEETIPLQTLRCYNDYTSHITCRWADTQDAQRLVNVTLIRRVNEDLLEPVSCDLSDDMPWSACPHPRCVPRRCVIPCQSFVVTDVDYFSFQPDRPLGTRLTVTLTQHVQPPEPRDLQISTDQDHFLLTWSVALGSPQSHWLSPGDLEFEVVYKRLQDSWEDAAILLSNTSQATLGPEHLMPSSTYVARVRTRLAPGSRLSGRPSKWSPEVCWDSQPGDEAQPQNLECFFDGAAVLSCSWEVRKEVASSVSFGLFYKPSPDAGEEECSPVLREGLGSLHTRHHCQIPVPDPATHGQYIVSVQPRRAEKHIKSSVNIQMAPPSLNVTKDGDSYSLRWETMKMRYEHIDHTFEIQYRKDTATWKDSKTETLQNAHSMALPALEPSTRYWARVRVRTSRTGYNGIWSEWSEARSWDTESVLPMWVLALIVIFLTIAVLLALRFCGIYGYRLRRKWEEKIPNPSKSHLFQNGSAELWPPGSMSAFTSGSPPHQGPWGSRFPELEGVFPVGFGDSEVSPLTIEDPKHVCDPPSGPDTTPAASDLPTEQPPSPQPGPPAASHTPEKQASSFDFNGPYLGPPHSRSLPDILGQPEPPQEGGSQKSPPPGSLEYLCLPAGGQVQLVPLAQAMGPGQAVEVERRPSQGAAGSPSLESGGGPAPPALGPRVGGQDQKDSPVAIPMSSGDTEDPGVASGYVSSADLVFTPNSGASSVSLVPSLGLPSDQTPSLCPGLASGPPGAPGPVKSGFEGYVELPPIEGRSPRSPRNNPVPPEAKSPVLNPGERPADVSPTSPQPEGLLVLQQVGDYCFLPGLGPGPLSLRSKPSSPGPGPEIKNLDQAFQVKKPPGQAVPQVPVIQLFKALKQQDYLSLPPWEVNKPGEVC
Conditions: HL60 subclone, eosinophilic differentiation initiated with sodium butyrate; read-out: Kd of IL-5 binding sites

- Kd: 0.03 nM
Substance: IL-5: lymphokine secreted by T cells and mast cells having biological activities on B cells and eosinophils
